According to paper PMC3433420, “Comprehensive Binary Interaction Mapping of SH2 Domains via Fluorescence Polarization Reveals Novel Functional Diversification of ErbB Receptors” (PLoS ONE, 2012):
Several values for one entry are separate records, joined by “and”; a condition that tells them apart may be missing. Identical values can stand only once. Non-standard residues stand in square brackets, D forms with d. No end group written: not given here. pY = N[C@@H](Cc1ccc(OP(=O)(O)O)cc1)C(=O)O; Rhodamine = not defined here

Columns and labels:
Assay in all cases: peptide or protein array; SH2/PTB proteins spotted on aldehyde slides, rhodamine peptide titrated in buffer B (20 mM HEPES, 100 mM KCl, 0.1% Tween-20, 5 mM DTT, pH 7.8), 1 h at room temperature; replicate assays
Settings in all cases: both partners purified
[1] = target: T1, DAPP1 SH2 domain (human, UniProt Q9UN19 35-129)
T1 construct: DAPP1, human; source: bacterial expression, purified
T1 sequence (looked up): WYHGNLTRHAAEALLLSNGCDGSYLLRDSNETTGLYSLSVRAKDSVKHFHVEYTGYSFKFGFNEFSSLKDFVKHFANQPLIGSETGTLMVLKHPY

[2] = target: T2, ABL2 SH2 domain (human, UniProt P42684 173-263)
T2 construct: ABL2, human; source: bacterial expression, purified
T2 sequence (looked up): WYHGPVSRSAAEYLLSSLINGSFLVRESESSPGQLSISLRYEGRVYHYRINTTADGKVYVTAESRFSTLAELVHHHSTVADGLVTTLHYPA

[3] = target: T3, NCK1 SH2 domain (human, UniProt P16333 282-376)
T3 construct: NCK1, human; source: bacterial expression, purified

[4] = target: T4, BCAR3 SH2 domain (human, UniProt O75815 154-253)
T4 construct: BCAR3, human; source: bacterial expression, purified
T4 sequence (looked up): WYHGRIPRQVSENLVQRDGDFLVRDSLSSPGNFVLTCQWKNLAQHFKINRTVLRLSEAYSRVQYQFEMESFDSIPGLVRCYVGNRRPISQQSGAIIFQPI

[5] = target: T5, SH2D1B SH2 domain (human, UniProt O14796 5-101)
T5 construct: SH2D1B, human; source: bacterial expression, purified
T5 sequence (looked up): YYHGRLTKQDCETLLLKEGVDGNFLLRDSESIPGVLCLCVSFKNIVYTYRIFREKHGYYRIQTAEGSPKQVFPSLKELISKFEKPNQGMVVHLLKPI

[6] = target: T6, SH3BP2 SH2 domain (human, UniProt P78314 457-555)
T6 construct: SH3BP2, human; source: bacterial expression, purified
T6 sequence (looked up): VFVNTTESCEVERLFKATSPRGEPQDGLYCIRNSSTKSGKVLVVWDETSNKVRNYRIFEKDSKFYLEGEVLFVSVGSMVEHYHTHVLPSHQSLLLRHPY

[7] = target: T7, SHF SH2 domain (human, UniProt Q7M4L6 323-418)
T7 construct: SHF, human; source: bacterial expression, purified
T7 sequence (looked up): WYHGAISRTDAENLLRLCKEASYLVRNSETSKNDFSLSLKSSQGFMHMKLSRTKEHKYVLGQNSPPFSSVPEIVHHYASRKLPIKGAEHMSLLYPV

[8] = target: T8, SOCS5 SH2 domain (human, UniProt O75159 381-476)
T8 construct: SOCS5, human; source: bacterial expression, purified
T8 sequence (looked up): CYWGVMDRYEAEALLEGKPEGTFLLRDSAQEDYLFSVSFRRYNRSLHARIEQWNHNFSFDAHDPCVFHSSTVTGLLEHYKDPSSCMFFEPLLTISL

[9] = target: T9, SYK C-terminal SH2 domain (human)
T9 construct: SYK, human; source: bacterial expression, purified

[10] = target: T10, BTK SH2 domain (human, UniProt Q06187 281-377)
T10 construct: BTK, human; source: bacterial expression, purified
T10 sequence (Q06187 281-377): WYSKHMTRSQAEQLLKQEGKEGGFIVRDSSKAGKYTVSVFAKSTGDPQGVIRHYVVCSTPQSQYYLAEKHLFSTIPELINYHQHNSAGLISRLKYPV

[11] = target: T11, CRK SH2 domain (human, UniProt P46108 13-118)
T11 construct: CRK, human; source: bacterial expression, purified
T11 sequence (P46108 13-118): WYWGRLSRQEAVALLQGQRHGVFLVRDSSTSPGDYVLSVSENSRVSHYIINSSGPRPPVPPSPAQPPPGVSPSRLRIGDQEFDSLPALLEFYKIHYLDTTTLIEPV

Binder: Rhodamine-ETDG[pY]VAPLTCSD (reading uncertain) [ErbB2 pY1127 phosphopeptide, rhodamine-labelled, for protein microarrays]
- Kd [1]: 2670 nM
- Kd [2]: 17 nM and 14.6 nM
- Kd [3]: 6850 nM
- Kd [4]: 726 nM
- Kd [5]: 2280 nM
- Kd [6]: 1140 nM and 2860 nM
- Kd [7]: 1020 nM
- Kd [8]: 698 nM
- Kd [9]: 1920 nM and 2390 nM
- Kd [10]: 4710 nM and 5890 nM
- Kd [11]: 7710 nM
